According to PMC9774250:

Tests used:
[1] = test system: apo-YgaV (His-tagged) (Escherichia coli (WT genomic DNA; BW25113?)); experiment: EMSA; conditions: EMSA: 50 nM probe, 25 mM Tris-HCl pH 8.0, 100 mM NaCl, 2 mM MgCl2, 6% glycerol, 50 mg/mL heparin (so in the source), room temperature 30 min, footprint: 100 nM DNA …
[2] = test system: heme-YgaV (His-tagged, hemin-reconstituted) (Escherichia coli (WT genomic DNA; BW25113?)); experiment: EMSA; conditions: heme; 10 mM Na2S (oxidized); EMSA: 50 nM probe, 25 mM Tris-HCl pH 8.0, 100 mM NaCl, 2 mM MgCl2, 6% glycerol, 50 mg/mL heparin (so in the source), room temperature 30 min; footprint: 100 nM DNA …

Substance	binding signal (fold higher EC50 than DTT-reduced) ([1]; 10 mM Na2S (oxidized))	binding signal (fold higher EC50 than DTT-reduced) [2]	binding signal ([1]; 1 mM DTT (reduced), scale: fold higher YgaV concentration for shift than ygaV promoter)
ygaVP promoter	5	5	–
katG promoter	–	–	20
